± gives the half width of the 95% confidence interval.

The values that follow come from the supplement of paper PMC12764529.

A short description of data set [1]: folding stability dG unfold (combined trypsin and chymotrypsin); higher = more stable. The method, boiled down: (§1)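 Unfolding free energy was derived, per protease or combined, against a sequence-predicted unfolded-state K50 and a shared folded-state K50, starting from K50 inferred by Bayesian fitting of sequencing counts. Digestion with trypsin and chymotrypsin was carried out on designed mini-proteins under 80 residues without cysteine in a PA-tagged cDNA display construct. Only designs with AlphaFold2 dimer inter-PAE above 15 were kept.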

Data set [2] can be described thus: folding stability dG unfold from trypsin proteolysis; higher = more stable. The method, boiled down: as §1
A short description of data set [3]: folding stability dG unfold from chymotrypsin proteolysis; higher = more stable. The method, boiled down: as §1

Regarding “SAGGSAIWIPVDEIRDLLKEFGIDVTVERHPNDGWVEIEIKMRRPNGKKHPIKIWVHPDGYIRIEPSAGGSA [r15_1051_TrROS]”, the “folding stability dG unfold” value worked out at 4.03 ± 0.18 kcal/mol in data set [1], 3.23 ± 0.16 kcal/mol in data set [2] and 4.42 ± 0.15 kcal/mol in data set [3].

Regarding “SAGGSAKATLPEGVKIETKTFKLDGRKYMPFVFEAPDDDWVWVNEMRMDPNGKMEMETIWIPPDAVSAGGSA [r15_986_TrROS]”, the entries for the “folding stability dG unfold” value in data set [1], in data set [2] and in data set [3] were 0.375 ± 0.23 kcal/mol, 0.368 ± 0.32 kcal/mol and 0.384 ± 0.44 kcal/mol, respectively.

For the sequence “SAGGSAKEVKIKFTRNPDGTLTMEITFEDGYVIRKTFTVKNGKLTEKVEVFPVKLDPETGKLVLLPSAGGSA [r15_746_TrROS_Hall]”, the “folding stability dG unfold” value in data set [1] is 2.84 ± 0.087 kcal/mol; in data set [2], 2.52 ± 0.078 kcal/mol; in data set [3] it was 2.98 ± 0.033 kcal/mol.

On to “SAGGSAKGLKVTFSHPDVEILSVKSYPGLGLAEVEFRYGDKLYRALVRFEPDDGGIAEATVEPVPGSAGGSA [r15_297_TrMRF]”, for which the “folding stability dG unfold” value was 2.55 ± 0.079 kcal/mol in data set [1], 1.58 ± 0.024 kcal/mol in data set [2] and 2.844 ± 0.026 kcal/mol in data set [3].

Turning to “SAGGSAKIEIPIMIPMPPGQEFDLKIRIPNLWKIKIERIYVSPDPGWIMFRIEIEPVAPPNDPEQMSAGGSA [r15_994_TrROS]”, the “folding stability dG unfold” value in data set [1] was 3.34 ± 0.21 kcal/mol; in data set [2], 2.92 ± 0.17 kcal/mol; in data set [3], 3.64 ± 0.071 kcal/mol.

Take “SAGGSAKIKIPKSYTAEILDASYDPETKTVTVKIKLFGKPATATIYPDGTVEIDLPNGKKITIPVGSAGGSA [r15_111_TrMRF]”: the “folding stability dG unfold” value in data set [1] is 2.27 ± 0.099 kcal/mol; in data set [2], 1.47 ± 0.083 kcal/mol; in data set [3] it was 2.62 ± 0.04 kcal/mol.

For the sequence “SAGGSAKIPVMFMIESPEQIIELVDEFAPPGHEVKVKIDNVEPFPMREDGEERPYYMFRVTIEFPPSAGGSA [r15_95_TrROS]”, the “folding stability dG unfold” value in data set [1] stood at 1.78 ± 0.14 kcal/mol; in data set [2], 1.64 ± 0.07 kcal/mol; in data set [3] it was 1.84 ± 0.16 kcal/mol.

With “SAGGSAKITIEYDPETGTITIKVELTNEDNGKKVTKEYEIKVDGKLIRIKIDANTGEIVEIEVLPPSAGGSA [r2_331_TrROS_Hall]”, the results for the “folding stability dG unfold” value in data set [1], in data set [2] and in data set [3] were 3.55 ± 0.15 kcal/mol, 3.52 ± 0.17 kcal/mol and 3.38 ± 0.13 kcal/mol, respectively.

For the sequence “SAGGSAKITIHMAPDGMFQIEIKTGGKERTYHVDMPLEQIKDELEDEGLEIKDIEITPFPPDPEDFSAGGSA [r15_576_TrROS]”, the results for the “folding stability dG unfold” value in data set [1], in data set [2] and in data set [3] were -0.409 ± 0.16 kcal/mol, -1.13 ± 0.93 kcal/mol and -0.146 ± 0.095 kcal/mol, respectively.

For the sequence “SAGGSAKITLWIWMPPGNPDKMAEEIADYLAERHGWTVKIKDVQIERDPEDDQVWIPVKIEIQPPPSAGGSA [r15_70_TrROS]”, the “folding stability dG unfold” value was 1.91 ± 0.39 kcal/mol in data set [1], 1.98 ± 0.14 kcal/mol in data set [2] and 1.39 ± 0.31 kcal/mol in data set [3].

With “SAGGSAKKDGTITIKIPVKAPKDKNGKVFKPSAEAIKAKFGELGFDFEIEEIKESETYLEIKIKVKSAGGSA [r15_225_TrMRF]”, the “folding stability dG unfold” value in data set [1] amounted to 1.53 ± 0.21 kcal/mol; in data set [2] it was 0.51 ± 0.086 kcal/mol; in data set [3], 1.78 ± 0.093 kcal/mol.

On to “SAGGSAKKEVYKINIKVYNKNGKKVKEIKIELPEELKGKTIEEIAKELAKKLNIEKIEVKIEPVKPSAGGSA [r15_333_TrROS_Hall]”, for which the “folding stability dG unfold” value in data set [1] came to 2.78 ± 0.21 kcal/mol; in data set [2], 1.61 ± 0.18 kcal/mol; in data set [3], 3.19 ± 0.1 kcal/mol.

Turning to “SAGGSAKKPEVTVEIEIVLPKEELEELLEALRKLPGLKVEVEEVEVREDGYVRVKLRITLPPGVKPSAGGSA [r15_441_TrROS_Hall]”, the “folding stability dG unfold” value in data set [1] worked out at 3.19 ± 0.12 kcal/mol; in data set [2] it was 2.39 ± 0.062 kcal/mol; in data set [3], 3.48 ± 0.046 kcal/mol.

Regarding “SAGGSAKKPKPGRLFLRYEEPEKGEVVEAVLTVYPNNVVELEVRRPDGKPVPLEKALKLLKELGLLSAGGSA [r15_872_TrMRF]”, the “folding stability dG unfold” value in data set [1] was 1.86 ± 0.14 kcal/mol; in data set [2] it was 1.54 ± 0.046 kcal/mol; in data set [3], 2.12 ± 0.1 kcal/mol.

As to “SAGGSAKKTYIIKIPVKEIVVKDKKTGKYKPISAEELAKLLEEKTGLKVEIVEVKDGYIVIKVKEKSAGGSA [r15_55_TrROS_Hall]”, the “folding stability dG unfold” value in data set [1] was found to be 2.74 ± 0.13 kcal/mol; in data set [2], 2.26 ± 0.091 kcal/mol; in data set [3] it was 2.96 ± 0.045 kcal/mol.

Turning to “SAGGSAKLSAEEIAKLLKKLFPEVKEIKVKVEVNGKLYEVKIKVEKVKKKEKKKVEGMSEEEKKKLSAGGSA [r15_156_TrROS_Hall]”, the “folding stability dG unfold” value in data set [1] amounted to 2.35 ± 0.32 kcal/mol; in data set [2], 2.06 ± 0.19 kcal/mol; in data set [3], 2.33 ± 0.1 kcal/mol.

For “SAGGSAKLTAEEIKKLPPNARIYFDKETGRVFIEVDGKLVVIEIDKETKEVKVVKVFPSKEALEKASAGGSA [r15_6_TrROS_Hall]”, the entries for the “folding stability dG unfold” value in data set [1], in data set [2] and in data set [3] were 1.82 ± 0.12 kcal/mol, 1.57 ± 0.054 kcal/mol and 1.86 ± 0.1 kcal/mol, respectively.

As for “SAGGSAKLTIELVISDMSPEDAEIAAENIRIELIKKGIPEEEIENVDIKVIVAPVYLDEDNNLILGSAGGSA [r15_684_TrMRF]”, the “folding stability dG unfold” value was 0.694 ± 0.058 kcal/mol in data set [1], 0.533 ± 0.019 kcal/mol in data set [2] and 0.657 ± 0.035 kcal/mol in data set [3].

With “SAGGSAKMTLIIKVSPEMTKEELEELARKLAEELNVKVEIEYDEETGLATVTIEKDGKKIEIIVERSAGGSA [r15_168_TrROS_Hall]”, the entries for the “folding stability dG unfold” value in data set [1], in data set [2] and in data set [3] were 2.49 ± 0.12 kcal/mol, 1.98 ± 0.083 kcal/mol and 2.74 ± 0.094 kcal/mol, respectively.

“SAGGSAKMVLVKIKVEGMSVEEVKKLLEEAGAKVVKIDEEKKVIIVEVSPEKAEELAKKLGFEVEVSAGGSA [r15_731_TrROS_Hall]”: the entries for the “folding stability dG unfold” value in data set [1], in data set [2] and in data set [3] were 3.45 ± 0.086 kcal/mol, 3.36 ± 0.14 kcal/mol and 3.42 ± 0.11 kcal/mol, respectively.

As to “SAGGSAKPEPIKIEIGPGGNRFKATFPNGDEADVDVVKDGDKTYLLITVTSPDGKPRPFKIPLEKLSAGGSA [r15_941_TrMRF]”, the “folding stability dG unfold” value in data set [1] was 2.1 ± 0.05 kcal/mol; in data set [2], 1.76 ± 0.042 kcal/mol; in data set [3] it was 2.24 ± 0.023 kcal/mol.

As for “SAGGSAKRYFIMIDIRYPGDGKEIYPLVIPIPPGEPISIEDILDEIGFPPENADNVDIEIHTFRAKSAGGSA [r15_665_TrROS]”, the “folding stability dG unfold” value in data set [1] came to 1.51 ± 0.22 kcal/mol; in data set [2], 1.56 ± 0.078 kcal/mol; in data set [3], 1.57 ± 0.14 kcal/mol.

For the sequence “SAGGSAKSIKAEELAKEIADLMQERNPNWRVEIEPQPGPGPMITVKIYHRDPNNGDQQPINTFTIRSAGGSA [r15_682_TrROS]”, the “folding stability dG unfold” value in data set [1] amounted to 0.442 ± 0.15 kcal/mol; in data set [2] it was 0.502 ± 0.099 kcal/mol; in data set [3], 0.188 ± 0.15 kcal/mol.

As for “SAGGSAKTIKIWIPVKGMTPEMLEEIARDILEELGMKVDIEPHPGDGYIEVTFKLPGKDIEIIIPWSAGGSA [r15_168_TrROS]”, the “folding stability dG unfold” value was found to be 2.61 ± 0.16 kcal/mol in data set [1], 2.04 ± 0.062 kcal/mol in data set [2] and 3.04 ± 0.1 kcal/mol in data set [3].

Turning to “SAGGSAKTKTITLKIKIVDPKTNKVYEFEIKIEVELTLDKNGKLTAKIKKIEIKAPKNSPLLKKLLSAGGSA [r15_258_TrROS_Hall]”, the figures for the “folding stability dG unfold” value in data set [1], in data set [2] and in data set [3] were 2.68 ± 0.24 kcal/mol, 2.57 ± 0.063 kcal/mol and 3.18 ± 0.041 kcal/mol, respectively.

Consider “SAGGSAKVIAVPSLEEALKLAEEAAKEGKDIVVLFPDNRLLVVEVKPAPDDKPVLKLKVFEIPPELSAGGSA [r15_761_TrMRF]”, for which the entries for the “folding stability dG unfold” value in data set [1], in data set [2] and in data set [3] were 0.767 ± 0.15 kcal/mol, 0.47 ± 0.049 kcal/mol and 0.974 ± 0.072 kcal/mol, respectively.

Consider “SAGGSAKWELSIWIPAPGMTPDKARELARDIAREFAQPGWKVKDIEVEPVNPDENVYRGTVTIEPPSAGGSA [r15_96_TrROS]”, for which the figures for the “folding stability dG unfold” value in data set [1], in data set [2] and in data set [3] were 1.49 ± 0.13 kcal/mol, 0.951 ± 0.04 kcal/mol and 1.82 ± 0.11 kcal/mol, respectively.

Turning to “SAGGSALAEKAKELALEKGYDPVKVTYDPKTGTLTMTAKPPGGKEVKMTFTIDEDTITITTTPLTKSAGGSA [r15_561_JUSTAS]”, the “folding stability dG unfold” value in data set [1] came out at 2.49 ± 0.16 kcal/mol; in data set [2], 0.996 ± 0.033 kcal/mol; in data set [3] it was 2.95 ± 0.078 kcal/mol.

Consider “SAGGSALDPDDLEKVTIEFMFYNPNGNLLYEMTLEIYPDDGVIKMEHKQRRPGEPQKVTMEFPFDPSAGGSA [r15_278_TrROS]”, for which the “folding stability dG unfold” value in data set [1] came out at 1.73 ± 0.28 kcal/mol; in data set [2] it was 1.63 ± 0.29 kcal/mol; in data set [3], 1.67 ± 0.18 kcal/mol.

As to “SAGGSALPALAERFPDAEIEPVGDDGTSVTYRFRFPGGDYLLVTVPFLPGTTEAVVDIEWVPRDALSAGGSA [r15_547_TrMRF]”, the “folding stability dG unfold” value in data set [1] worked out at 2.35 ± 0.051 kcal/mol; in data set [2], 1.68 ± 0.051 kcal/mol; in data set [3], 2.628 ± 0.012 kcal/mol.

With “SAGGSALPDIEVEELVRRLLELLEEDQPFRIVVFPPGGRWLTLDELLNVPAEEIPDLVVLVFVPDLSAGGSA [r15_144_TrMRF]”, the “folding stability dG unfold” value in data set [1] stood at 3.3 ± 0.088 kcal/mol; in data set [2], 3.04 ± 0.091 kcal/mol; in data set [3], 3.49 ± 0.06 kcal/mol.

Turning to “SAGGSALTLNDKSLIPKPFPKKKAIVDVAVPLPPNLTLEEALEVAEAIANNLLKAGKIDEATVAIYSAGGSA [r15_450_TrMRF]”, the “folding stability dG unfold” value in data set [1] was 0.108 ± 0.091 kcal/mol; in data set [2], -0.0583 ± 0.11 kcal/mol; in data set [3] it was 0.151 ± 0.15 kcal/mol.

Regarding “SAGGSALVIKKVEPNKGYLVFESKEDDKPIVRVKLETLVAALEEDRIPPALRRLLAENPDQVFNPVSAGGSA [r15_359_TrMRF]”, the “folding stability dG unfold” value in data set [1] is 1.9 ± 0.21 kcal/mol; in data set [2], 2.22 ± 0.12 kcal/mol; in data set [3], 1.75 ± 0.25 kcal/mol.

On to “SAGGSALYIPPGTEHTVLIKLKDDDRYYEAKVTRVYPTSIEVEVEDPLTGEKKRYTINATDIELGDSAGGSA [r15_381_TrMRF]”, for which the “folding stability dG unfold” value stood at 2.18 ± 0.18 kcal/mol in data set [1], 2.14 ± 0.12 kcal/mol in data set [2] and 2.24 ± 0.07 kcal/mol in data set [3].

Consider “SAGGSAMAIFTVTPPDGVPVTERYSFTTPEEVEAAFAAAKAALPPGTALSVTLVPEEEVAAGRPLLSAGGSA [r15_469_JUSTAS]”, for which the “folding stability dG unfold” value in data set [1] came to 1.23 ± 0.034 kcal/mol; in data set [2], 0.386 ± 0.027 kcal/mol; in data set [3], 1.59 ± 0.043 kcal/mol.
